US20210017265A1 (RIKEN, published 2021)
Values belong to the molecule of their own block, whether it stands above or below them.

Key:
[1] = target: human TGF-β1-LAP (amino acid residues position-30 to position-390), recombinant, Example 4 (human) (UniProt P01137); assay: SPR, Biacore T200; antibody immobilised on CM5, analyte 1.56-25 nM
[2] = target: complex of human TGF-β1 LAP-D and A2D109 antibody Fab fragment (human) (UniProt P01137); assay: SPR, Biacore T200; antibody immobilised on CM5, analyte is the preformed LAP/A2D109 Fab complex, 1.56-25 nM
complex of human TGF-β1 LAP-D and A2D109 antibody Fab fragment (human), sequence (P01137 30-390, one chain of several): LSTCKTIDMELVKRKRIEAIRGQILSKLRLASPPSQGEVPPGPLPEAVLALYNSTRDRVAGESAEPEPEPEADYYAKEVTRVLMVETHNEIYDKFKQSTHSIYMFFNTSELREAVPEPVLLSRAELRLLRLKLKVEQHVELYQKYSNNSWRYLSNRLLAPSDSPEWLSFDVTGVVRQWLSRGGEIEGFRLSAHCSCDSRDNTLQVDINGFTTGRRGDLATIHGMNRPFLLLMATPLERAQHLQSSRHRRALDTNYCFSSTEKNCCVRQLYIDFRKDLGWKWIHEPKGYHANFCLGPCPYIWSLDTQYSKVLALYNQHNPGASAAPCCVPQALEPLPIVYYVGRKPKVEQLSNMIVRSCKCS

[3] = target: T1, human TGF-β1-LAP (amino acid residues position-30 to position-390), recombinant, Example 4 (human, UniProt P01137 30-390); assay: complex formation, gel filtration
T1 construct: Expressed in HEK293F cells behind an Igk signal with a TEV-cleavable His tag, which was cut off; Stated molecular weight 41653 Da; also called human TGF-β1 LAP-D; TGF-β LAP
T1 sequence (P01137 30-390): as the sequence (P01137 30-390, one chain of several) above
Procedure: A Fab fragment (A2D109 Fab) was prepared from the A2D109 antibody using Pierce (trademark) Mouse IgG1 Fab and F(ab′)2 Preparation Kit (manufactured by Thermo Fisher). The concrete operation of the procedure was carried out in accordance with the manual included in the kit. A reaction solution produced by the procedure was purified by gel filtration using Superdex 200 Increase 10/300 GL (manufactured by GE Healthcare). A 50-kDa elution fraction was collected, and the fraction was used as A2D109 Fab. Purified recombinant TGF-β1-LAP and purified A2D109 Fab were mixed together at a molar mixing ratio of 1:1. A complex thus produced was purified by gel filtration chromatography (HiLoad 16/600 Superdex 200 pg, manufactured by GE Healthcare) using a column equilibrated with a buffer composed of 20 mM Tris-HCl (pH 8.0), 150 mM NaCl and 10% glycerol.

[4] = target: T1, human TGF-β1-LAP (amino acid residues …); assay: SPR, Biacore T200; antibody immobilised on CM5, analyte 1.56-25 nM
Procedure: (§1) Each of the anti-LAP-D antibody (A10) and the BAM2462 antibody was immobilized on a Biacore (registered trademark) sensor chip Series S Sensor Chip CM5 (manufactured by GE Healthcare). The amounts of these antibodies immobilized were 2027 RU and 310 RU, respectively. Each of a solution of human TGF-β1 LAP and a solution of a complex of human TGF-β1 LAP and A2D109 Fab was diluted with a buffer composed of 10 mM of HEPES-NaOH (pH 7.5), 150 mM of NaCl, 3 mM of EDTA and 0.005% of Surfactant P-20 to prepare solutions having various concentrations. Each of these solutions was fed to Biacore (registered trademark) T200 (manufactured by GE Healthcare). The analyte concentration in each of the solutions and the measurement conditions are shown below. Measurement data were analyzed using Biacore (registered trademark) Evaluation software to acquire date on the affinity of each of the antibodies.

[5] = target: T2, complex of human TGF-β1 LAP-D and A2D109 antibody Fab fragment (human, UniProt P01137 30-390); assay: SPR, Biacore T200; antibody immobilised on CM5, analyte is the preformed LAP/A2D109 Fab complex, 1.56-25 nM
T2 construct: Preformed complex, mixed 1:1 by moles and purified by gel filtration; Stated molecular weight 89514 Da; Used as the SPR analyte; also called TGF-β LAP-A2D109Fab; complex of human TGF-β1 LAP and A2D109 Fab
T2 sequence (P01137 30-390, one chain of several): as above
Procedure: as §1

human TGF-β1-LAP (amino acid residues position-30 to position-390), recombinant, Example 4 (human), sequence (P01137 30-390): as the sequence (P01137 30-390, one chain of several) above

Kd [1]: 0.0167 nM
koff [1]: 2.34e-05 s⁻¹
kon [1]: 1.4e+06 M⁻¹ s⁻¹
Kd [2]: 0.345 nM
koff [2]: 0.000154 s⁻¹
kon [2]: 447000 M⁻¹ s⁻¹
Molecule: anti-human LAP TGF-β1 antibody (BAM2462, manufactured by R&D Systems)

binding result [3]: binds
B1: A2D109 antibody Fab fragment (Fab, V domains shown)
VH: EVQLQQSGAELVRPGASVKLSCKASGYTFTSYWMNWVKQRPGQGLEWIGMIDPSDSETHYNQMFKDKATLTVDKSSSTAYMQLSSLTSEDSAVYYCVNWPYALDYWGQGTSVTVSS
VL: QIVLTQSPAIMSASPGEKVTMTCSASSSVSYMHWFQQKPGTSPKLWIYSTSNLASGVPARFSGSGSGTSYSLTISRMEAEDAATYYCQQRSSYPFTFGSGTKLEIKR
notes: Fab made from the mouse A2D109 antibody with a Mouse IgG1 Fab preparation kit; 50-kDa gel filtration fraction; the constant parts of the Fab are not; also called A2D109 Fab; A2D109Fab

Kd [4]: 0.214 nM
koff [4]: 4.17e-05 s⁻¹
kon [4]: 195000 M⁻¹ s⁻¹
koff [5]: 0.000201 s⁻¹
kon [5]: 304000 M⁻¹ s⁻¹
B2: anti-LAP-D antibody (A10) (antibody, mouse IgG1, kappa, V domains shown)
VH: QVQLQQPGAELVRPGASVKLSCKTSGYSFTRFWMNWVRQRPGQGLEWIGMIHSSDSITRLNQKFKDKATLTLDYSSSTAYMQLSSPTSEDSAVYYCARGYDEYSAMDYWGQGTSVPVSS
VL: DIQMTQSPSSLSASLGERVSLTCRASHEISGYLGWLQRQPDGTIKRLIYAASTLDSGVPKRFSGSRSGSDYSLTISSLESEDFADYYCLQYASYPFTFGSGTKLEVKR
notes: Biotin-labelled when used as ELISA detection antibody; immobilised on a CM5 chip in SPR; also called isolated monoclonal antibody of the present embodiment
